Measurements as given in patent US20040253248A1.

Biological target: rat neurokinin-1 receptor (NK-1R) (rat) (UniProt P14600)
Sequence (P14600 whole entry): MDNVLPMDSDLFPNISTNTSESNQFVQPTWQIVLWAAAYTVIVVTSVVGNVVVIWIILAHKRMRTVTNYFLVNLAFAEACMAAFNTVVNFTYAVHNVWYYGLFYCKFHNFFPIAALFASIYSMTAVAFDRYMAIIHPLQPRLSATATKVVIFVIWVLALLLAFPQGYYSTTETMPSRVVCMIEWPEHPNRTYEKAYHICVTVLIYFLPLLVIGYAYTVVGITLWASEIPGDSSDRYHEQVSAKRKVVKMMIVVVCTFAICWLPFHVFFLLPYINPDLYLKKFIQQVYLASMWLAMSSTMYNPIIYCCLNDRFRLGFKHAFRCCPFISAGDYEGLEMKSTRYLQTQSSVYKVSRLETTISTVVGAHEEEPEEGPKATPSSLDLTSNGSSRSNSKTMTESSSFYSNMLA

In the case of “[Sar9, Met (02)11]-SP-SAP (from UniProt P20656 25-277)”, the IC50 (read off the curve) is reported as 0.2 nM.
